Results from paper PMC5477842.

Biological target: Truncated rat Eag1 (rEag1Δ; Kv10.1 with residues 773-886 removed) (rat) (UniProt Q63472)
Test: cryo-EM structure

Substance: calmodulin (from UniProt P0DP23 1-149) (natural protein)
- stoichiometry N (CaM molecules per rEag1 tetramer): 4
